{"source": "paper PMC2819845", "about": "(Biochemistry, 2009)", "target": "the molecule itself", "test": "crystal structure"}
{"protein": "phosphorylated Sts-2PGM (phospho-His366) (domain or fragment, mouse, UniProt Q3V3E1 354-624, looked up, phosphohistidine at 366 (on NE2; occupancy between 0.50 and 0.70, in three of the four monomers)) ATISRRGILVVRHGERVDQVFGKSWLQQCTTADGKYYRPDLNFPRSLPRRSNGIKDFENDPPLSSCGIFQARLAGEALLDSGVRVTAVFASPALRCVQTAKHILEELKLEKKLKIRVEPGIFEWMKWEASKATLTFLTLEELKEANFNVDLDYRPALPRCSLMPAESYDQYVERCAVSMGQIINTCPQDMGITLIVSHSSALDSCTRPLLGLPPRECGDFAQLVRKIPSLGMCFCEENREDGKWDLVNPPVKTLTHGANSVFNWRNWISSN", "values": [{"measurement": "binding result", "value": "binds"}]}
